The values below come from the Human Domainome abundance scans (Beltran et al. 2025).

Sequences and labels used below:
B1: POU domain, class 4, transcription factor 2, residues 256 to 327; numbered along this chain, Q12837 (parent)
chain: RDLEAFAERFKQRRIKLGVTQADVGSALANLKIPGVGSLSQSTICRFESLTLSHNNMIALKPILQAWLEEAE

± gives the uncertainty stated by the source.

The variants in this data set derive from B1. Put plainly: abundance fitness (aPCA) (normalised: wild type 0, dead -1); higher = more abundant; growth selection in yeast, the domain comes from the species named. Particulars: Homo sapiens.
As for RDLEAFAERFKQRRIKLGVTQADVESALANLKIPGVGSLSQSTICRFESLTLSHNNMIALKPILQAWLEEAE, the abundance fitness is 0.127 ± 0.09.

In the case of RDLEAFAERFKQRRIKLGVTQADVTSALANLKIPGVGSLSQSTICRFESLTLSHNNMIALKPILQAWLEEAE, the abundance fitness came out at 0.117 ± 0.097.

On to RDLEAFAERFKQRRIKLGVTQADVGSALANLKIPGVGSLSQSTICRFEPLTLSHNNMIALKPILQAWLEEAE, for which the abundance fitness is -0.537 ± 0.099.

Turning to RDLEAFAERFKQRRIKLGVTQADVGSALANLKIPGVGSLSQSTICRFEWLTLSHNNMIALKPILQAWLEEAE, the abundance fitness is -0.485 ± 0.22.

For RDLEAFAERFKQRRIKLGVTQADVGSALANLKIPGVGSLSQSTICRFESLTLSHNNMIWLKPILQAWLEEAE, the abundance fitness was -0.087 ± 0.074.

As to RDLEAFAERFKQRRIKLGVTQADVGSALANLKIPGVGSLSQSTICRFESLTLSHNNMIKLKPILQAWLEEAE, the abundance fitness is -0.057 ± 0.14.

RDLEAFAERFKQRRIKLGVTQADVGSALANLKIPGVGSLSQSTICRFESLTLSHNNMIALKPILQAWLEGAE: the abundance fitness was -0.313 ± 0.08.

Take RDLEAFAERFKQRRIKLGVTQADVGSALGNLKIPGVGSLSQSTICRFESLTLSHNNMIALKPILQAWLEEAE: the abundance fitness was -0.009 ± 0.082.

With RDIEAFAERFKQRRIKLGVTQADVGSALANLKIPGVGSLSQSTICRFESLTLSHNNMIALKPILQAWLEEAE, the abundance fitness was 0.072 ± 0.1.

As to RDLEAFAERPKQRRIKLGVTQADVGSALANLKIPGVGSLSQSTICRFESLTLSHNNMIALKPILQAWLEEAE, the abundance fitness is -0.994 ± 0.12.

As to RDLEAFAERFKQRRIKLGVTQADVGSALANLKIPGVGSLSQSTYCRFESLTLSHNNMIALKPILQAWLEEAE, the abundance fitness was -0.019 ± 0.39.

Turning to RDLEAFAERFKQRRIKLGVTQADVGSALANLKIPGVGSLSQSTSCRFESLTLSHNNMIALKPILQAWLEEAE, the abundance fitness is -0.963 ± 0.28.

As for RDLEAFAERFKQRRIKLGVTQADVGSALANLFIPGVGSLSQSTICRFESLTLSHNNMIALKPILQAWLEEAE, the abundance fitness is -0.372 ± 0.14.

For the variant RDLEAFAERFKQRRIKLGVTQADVGSALANLKIPGVGSLSQSTICRFESLTLSHQNMIALKPILQAWLEEAE, the abundance fitness was determined as 0.073 ± 0.088.

Consider RDLEAFAERFSQRRIKLGVTQADVGSALANLKIPGVGSLSQSTICRFESLTLSHNNMIALKPILQAWLEEAE, for which the abundance fitness is -0.443 ± 0.08.

As for RDLEAFAERFKQRRIKLGVTQADCGSALANLKIPGVGSLSQSTICRFESLTLSHNNMIALKPILQAWLEEAE, the abundance fitness is -0.1 ± 0.11.

For RDLEAFAERFKQRRIKLGVTQADMGSALANLKIPGVGSLSQSTICRFESLTLSHNNMIALKPILQAWLEEAE, the abundance fitness is -0.191 ± 0.098.

With RDLEAFAERFKQRRIKLGVTQADIGSALANLKIPGVGSLSQSTICRFESLTLSHNNMIALKPILQAWLEEAE, the abundance fitness is -0.145 ± 0.15.

In the case of RDLEAFAERFKQRRIKLGVTQADVGSALANDKIPGVGSLSQSTICRFESLTLSHNNMIALKPILQAWLEEAE, the abundance fitness is -0.509 ± 0.26.

Turning to RDLEAFAERFKQRRIKLGVTQADVGSALANLKIPGVGSLSQSTICRFWSLTLSHNNMIALKPILQAWLEEAE, the abundance fitness is -1.09 ± 0.24.

As to RDLEAFAERFKQRRIKLGVTQADVGVALANLKIPGVGSLSQSTICRFESLTLSHNNMIALKPILQAWLEEAE, the abundance fitness was -0.234 ± 0.084.

As to RDLEAFAERFKQRRIKLGVTQADVGSALANLKIPGVGSLSQSTICRFESWTLSHNNMIALKPILQAWLEEAE, the abundance fitness is -0.791 ± 0.19.

Take RDLEAFAERFKQRRIKLGVTQADVGSALANLKIPGVGSLSQSTICRFESLTLSHNNMIALKPILQAWLKEAE: the abundance fitness is -0.458 ± 0.24.

For the variant RDLEAFAERFKQRRIKLGVTQADVGSALANLKIPGVGSLSQSTICRFESLTLSHNNMIALKPILQAWLGEAE, the abundance fitness is -0.18 ± 0.07.

Take RDLEAFAERFKQRRIKLGVTQADVGSALANLKIPGVGSLSQSTICRFESLTLSHNNMIALKPIAQAWLEEAE: the abundance fitness was -0.902 ± 0.2.

As for RDLEAFAERFKMRRIKLGVTQADVGSALANLKIPGVGSLSQSTICRFESLTLSHNNMIALKPILQAWLEEAE, the abundance fitness is -0.194 ± 0.1.

As to RDLEAFAERFKQRRIKLGVTQADVGSALANLKIPGVGRLSQSTICRFESLTLSHNNMIALKPILQAWLEEAE, the abundance fitness is -0.022 ± 0.045.

On to RDLEAFAERFKQARIKLGVTQADVGSALANLKIPGVGSLSQSTICRFESLTLSHNNMIALKPILQAWLEEAE, for which the abundance fitness stood at 0.066 ± 0.05.

Turning to RGLEAFAERFKQRRIKLGVTQADVGSALANLKIPGVGSLSQSTICRFESLTLSHNNMIALKPILQAWLEEAE, the abundance fitness is -0.21 ± 0.054.

RFLEAFAERFKQRRIKLGVTQADVGSALANLKIPGVGSLSQSTICRFESLTLSHNNMIALKPILQAWLEEAE: the abundance fitness was -0.376 ± 0.2.

As for RDLEAFANRFKQRRIKLGVTQADVGSALANLKIPGVGSLSQSTICRFESLTLSHNNMIALKPILQAWLEEAE, the abundance fitness stood at 0.049 ± 0.096.

Consider RDLEAFAERFKQRRIKLGVTQADVGSALANLKIPGMGSLSQSTICRFESLTLSHNNMIALKPILQAWLEEAE, for which the abundance fitness is -0.203 ± 0.11.

As for RDLEAFAERFKQRRIKLGVTQADVGSALANLKIPGVGSLSQSTICRFESLTLSHNNMYALKPILQAWLEEAE, the abundance fitness is -0.461 ± 0.16.

Consider RDLEAFAERFKQRRIKLGVTQADVGSALANLKIPGVGSLSQSTILRFESLTLSHNNMIALKPILQAWLEEAE, for which the abundance fitness is -0.157 ± 0.057.

Consider RDLEAFAERFKQRRIKLGVTQADVGSALANLKIPGVGSLSQSTIERFESLTLSHNNMIALKPILQAWLEEAE, for which the abundance fitness turned out to be 0.156 ± 0.14.

As for RDLEAFAERFKQRRIKLGVTQADVGSALANLKIPGVGSLSQSTIWRFESLTLSHNNMIALKPILQAWLEEAE, the abundance fitness is -0.431 ± 0.11.

For the variant RDLEAFAERFKQRRIKLGVTQADVGSALANLKIPGVGSLSQSTICRFESLTLSHNNTIALKPILQAWLEEAE, the abundance fitness was -0.701 ± 0.13.

On to RDLEAFAERFKQRRIKLGVTQADVGSALANLKIPGVGSLSQSTICRFESLTLSHNNKIALKPILQAWLEEAE, for which the abundance fitness is -0.892 ± 0.34.
